From the RNAGym collection of RNA variant scans (doi:10.7554/elife.90254)

B1: LINE1-full (parent)
chain: UACGUAGGUGGUUUUCCCCUGAUAGUGCUAAGGGGGCCUGGAAGUUUGGACUGGGCAGAGCUCAACACAGCGUGGCAAAGUGGCUGUGGCUAGACUGCCUCUCUGGAUUCCUCGUCACUCAGCAGGGCAUCUCUGAGAGAAAUGCC

Variants of: B1
Assay: self-cleavage, relative activity (ratio to wild type); higher = more cleavage; in vitro, sequencing; the parent is a self-cleaving ribozyme

Variant	self-cleavage
U20C U87A	0.1
U20C U87C	0.24
U20C U91A	0.55
U20C U91C	0.76
U20C U96C	0.08
U20C U100A	0.81
U20C U100C	1.69
U20C U102A	1.21
U20C U102C	1.25
U20C U104C	1.51
U20C U108C	1.62
U20C U109A	1.54
U20C U109C	1.34
U20C U112G	0.54
U20C U115A	1.54
U20C U132G	0.46
U20C U134A	0.96
U20C U134C	1.57
U20C U134G	0.77
U20C U143A	1.5
U20G	1.1
U20G A22G	0.41
U20G A57U	0.21
U20G A67U	0.11

Variant	self-cleavage
U20G A69G	1.05
U20G A77G	1.36
U20G A79G	1.17
U20G A121G	1.27
U20G A136U	0.98
U20G A142G	1.09
U20G C37A	1.04
U20G C95U	0.29
U20G G34A	0.69
U20G G41U	0.84
U20G G48A	0.43
U20G U81A	2.03
U20G U81C	1.08
U20G U85A	0.24
U20G U91A	0.47
U20G U96C	0.26
U20G U108C	1.97
U20G U112C	0.76
U20G U119C	1.74
G21A A31U	1.43
G21A A50C	0.9
G21A A50G	0.71
G21A A59G	0.04
G21A A65U	0.21

Variant	self-cleavage
G21A A67G	0.48
G21A A77G	2.18
G21A A77U	1.18
G21A A78G	1.31
G21A A94G	0.1
G21A A117U	1.55
G21A A129U	1.17
G21A A140G	1.3
G21A A142G	1.66
G21A C28U	1.22
G21A C146U	1.56
G21A G33A	1.39
G21A G82A	2
G21A U29C	1.04
G21A U39C	0.78
G21A U45A	1.58
G21A U45C	0.84
G21A U46C	1.31
G21A U81A	1.8
G21A U85C	0.18
G21A U91C	0.35
G21A U96A	0.06
G21A U102A	1.14
G21A U104A	1.27

Variant	self-cleavage
G21A U109A	0.64
G21A U109C	0.95
G21A U112C	1.02
G21A U115A	1.46
G21A U134A	1.17
G21C U143C	1.97
G21U A65C	0
G21U A77G	1.7
G21U A94G	0.18
G21U C51A	1.48
G21U G72A	1.62
G21U U62A	0.02
G21U U85G	0.08
G21U U91C	0.45
G21U U96C	0.06
G21U U115C	2.18
G21U U119C	1.84
A22C	1.51
A22C A50G	1.86
A22C A77U	0.35
A22C A92U	1.7
A22C A129U	1.96
A22C A140G	1.65
A22C A141G	1.34

Variant	self-cleavage
A22C A142G	1.27
A22C U73C	1.88
A22C U85C	0.35
A22C U119A	2.09
A22C U143A	1.53
A22G	1.12
A22G A24G	0.98
A22G A31G	0.35
A22G A31U	0.86
A22G A42G	0.93
A22G A42U	1.31
A22G A43G	1.02
A22G A50U	1.32
A22G A59C	1.31
A22G A59U	0.33
A22G A67C	0.23
A22G A69C	0
A22G A77C	1.09
A22G A77G	1.77
A22G A77U	0.79
A22G A78C	1.45
A22G A79G	0.76
A22G A92C	0.12
A22G A94C	0.07

Variant	self-cleavage
A22G A94G	0.56
A22G A94U	0.37
A22G A107G	0.82
A22G A117C	2.12
A22G A121G	0.95
A22G A121U	1
A22G A129G	1.45
A22G A129U	0.67
A22G A138G	1.25
A22G A140G	0.8
A22G A140U	1.05
A22G A141G	1.27
A22G A142G	1.23
A22G C37U	0.94
A22G C61U	0.07
A22G C66U	0.07
A22G C71U	0.55
A22G C76U	1.39
A22G C99U	0.23
A22G C116U	0.24
A22G C133U	0.58
A22G G33U	1.25
A22G G35U	0.6
A22G G36A	1.36

Variant	self-cleavage
A22G G40A	0.55
A22G G44A	1.25
A22G G49A	0.84
A22G G53U	1.29
A22G G54A	0.75
A22G G54U	0.23
A22G G72A	1.94
A22G G75A	1.13
A22G G80U	1
A22G G82A	1.94
A22G G86A	0.07
A22G G89A	0.09
A22G G93A	0.03
A22G G122A	0
A22G G122C	1.31
A22G G127U	1.67
A22G G139A	1.82
A22G U23C	0.63
A22G U29C	1.42
A22G U39A	1.72
A22G U39C	1.14
A22G U45A	0.94
A22G U45G	0.82
A22G U46C	1.04

Variant	self-cleavage
A22G U47C	1.18
A22G U52C	1.56
A22G U52G	0.92
A22G U62C	0.09
A22G U73A	1.29
A22G U81A	1.67
A22G U85A	0.12
A22G U91A	0.71
A22G U91C	0.65
A22G U96A	0.13
A22G U100A	0.98
A22G U100C	1.75
A22G U102A	1.5
A22G U102C	1.04
A22G U104A	1.38
A22G U104C	1.26
A22G U108A	1.74
A22G U109C	1.36
A22G U115A	1.52
A22G U115C	1.18
A22G U119G	1.51
A22G U132G	1.67
A22G U134A	1.03
A22G U134C	0.96

Variant	self-cleavage
A22G U143A	1.19
A22G U143C	0.97
A22U	1.11
A22U A24G	1.95
A22U A30G	1.98
A22U A31G	1.04
A22U A42G	1.54
A22U A43G	1.01
A22U A50U	0.39
A22U A65G	0.14
A22U A67G	0.41
A22U A69U	0.12
A22U A77G	2.23
A22U A77U	0.62
A22U A79G	0.96
A22U A107U	1.96
A22U A117G	0.65
A22U A121G	1
A22U A129G	2.09
A22U A138C	0.92
A22U A138G	1.09
A22U A141G	1.29
A22U C38U	1.18
A22U C103U	1.42

Variant	self-cleavage
A22U C123A	1.17
A22U G25A	0.7
A22U G34A	0.82
A22U G40U	0.87
A22U G55A	0.37
A22U G72A	1.27
A22U G75A	1
A22U G106U	1.72
A22U G114A	1.44
A22U G122A	1.19
A22U G126A	1.5
A22U U23C	0.87
A22U U26A	0.5
A22U U39C	1.2
A22U U46A	1.2
A22U U47A	1.44
A22U U47C	1.04
A22U U62A	0
A22U U85A	0.08
A22U U87A	0.1
A22U U91A	0.3
A22U U91C	0.2
A22U U96A	0.09
A22U U96G	0.53

Variant	self-cleavage
A22U U100C	1.54
A22U U102A	1.41
A22U U104A	1.01
A22U U104C	1.31
A22U U108C	1.19
A22U U115C	1.77
A22U U119G	2.23
A22U U130A	1.38
A22U U143G	1.27
U23A A30G	2.09
U23A A31C	1.31
U23A A50G	1.25
U23A A57G	0.94
U23A A64G	0.23
U23A A64U	0.34
U23A A65U	0.53
U23A A67U	0.19
U23A A77U	1.24
U23A A92G	0.12
U23A A117G	2.16
U23A A124G	0.94
U23A A129G	2.15
U23A A136G	1.31
U23A A136U	1.7

Variant	self-cleavage
U23A A141G	1.21
U23A A142G	1.12
U23A C98U	0.26
U23A G93A	0.08
U23A G144A	1.85
U23A U26C	0.99
U23A U29A	1.24
U23A U29C	1.02
U23A U39A	1.42
U23A U45A	1.28
U23A U46A	0.6
U23A U47C	1.88
U23A U52A	1.37
U23A U73A	1.16
U23A U81A	1.7
U23A U85C	0.28
U23A U104C	0.84
U23A U108A	1.44
U23C A24C	1.09
U23C A31U	0.77
U23C A42U	1.22
U23C A57G	1.2
U23C A57U	0.18
U23C A64G	0.35

Variant	self-cleavage
U23C A65C	0
U23C A67U	0.18
U23C A69U	0.02
U23C A78U	2.06
U23C A79G	1.4
U23C A79U	2.06
U23C A94U	0.48
U23C A117G	1.27
U23C A117U	1.75
U23C A121G	2
U23C A121U	0.66
U23C A124G	1.52
U23C A136G	1.27
U23C A138G	1.95
U23C A141G	1.4
U23C A142U	2.35
U23C C56U	0.23
U23C C61A	0.06
U23C C63U	0.35
U23C C111U	1.34
U23C C113A	0.4
U23C C118U	1.81
U23C C131U	1.84
U23C C133A	1.09

Variant	self-cleavage
U23C G27A	1.8
U23C G34A	1.26
U23C G34U	1.44
U23C G35A	1.4
U23C G48A	1.44
U23C G55U	0.22
U23C G72U	0
U23C G83A	1.02
U23C G93U	0.04
U23C G122A	1.61
U23C G144A	1.28
U23C U26C	1.29
U23C U46A	0.92
U23C U46C	1.52
U23C U47C	1.32
U23C U52C	1.43
U23C U62C	0.04
U23C U85A	0.07
U23C U85C	0.22
U23C U87C	0.25
U23C U91C	1.18
U23C U91G	0.15
